Results on 36 sequences are retold here after the supplement of paper PMC10567573.

A short description of the data set: protein stability index of a GFP-peptide fusion (GPS, HEK-293T) (PSI 1-6); higher = more stable. The settings on record: c terminus: a fixed tail appended.

± gives the standard deviation.
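Also: 24-mer peptide tiles fused after GFP, lentivirally expressed, FACS-sorted into six equal bins by GFP/DsRed ratio, decoded by Illumina sequencing, PSI is the read-weighted mean bin number.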

For LVHTQEPGEWLELLLEPGSLYILR [ALKBH7], the protein stability index stood at 2.38 ± 1 (treatment: DMSO) and 2.23 ± 0.28 (treatment: MLN4924 1 uM, 8 h).
For LVRTLYKVQNECPGITRVYSIGRS [CPN1], in that order: 2.27 ± 0.55 and 2.11 ± 0.14.
For LVSPERAQPPDYTFPSGSGAHFPQ [PI4K2A], in that order: 3.96 ± 0.3 and 4.13 ± 0.25.
For LWARGTWTQATGLGCALLAAHAVV [SOAT2], in that order: 3.01 ± 0.11 and 3.2 ± 1.6.
Turning to LWASQREKEVLRRERAVEWRERAV [ZBED2], the protein stability index was determined as 3.15 ± 0.44 (treatment: DMSO) and 3.38 ± 0.11 (treatment: MLN4924 1 uM, 8 h).
With LYHRADVEKVLRRWVDEEWPKRER [EDARADD], the protein stability index by setting is: (treatment: DMSO) 2.87 ± 0.31; (treatment: MLN4924 1 uM, 8 h) 2.94 ± 0.45.
For LYQLEGNNQITCRNGQWSEPPKCL [CFHR2], in that order: 3.08 ± 0.29 and 2.98 ± 0.18.
In the case of LYRDDVLIKPSRVVAILAAACLLQ [GMCL1], the protein stability index runs as follows: (treatment: DMSO) 3.05 ± 0.84; (treatment: MLN4924 1 uM, 8 h) 2.45 ± 0.18.
LYRSRMNSLEMTPAVRQRVIEEAK [HMOX1] displayed a protein stability index (treatment: DMSO) of 4.04 ± 0.21 and a protein stability index (treatment: MLN4924 1 uM, 8 h) of 4.06 ± 0.26.
For MAMQMQLEANADTSVEEESFGPQP [RAD51], in that order: 5.15 ± 0.25 and 5.26 ± 0.13.
For MARNPAAIDMFIIGATFTDWFTSY [FBXO3], in that order: 3.1 ± 0.62 and 2.84 ± 0.57.
As for MARPLVPSSQKALLLELKGLQEEP [CDC34], the protein stability index reads like this: (treatment: DMSO) 4.06 ± 0.13; (treatment: MLN4924 1 uM, 8 h) 3.98 ± 0.33.
For MASPDDPLRADHMVKEPVEDTDPS [EDARADD], in that order: 5.52 ± 0.17 and 5.63 ± 0.2.
For MATESVDHELGRCTDSVVKYELMR [EHMT1], in that order: 3.65 ± 0.29 and 3.69 ± 0.19.
For MATQADLMELDMAMEPDRKAAVSH [CTNNB1], in that order: 4.78 ± 0.19 and 4.95 ± 0.15.
MDDPKGDFITLYQMASQSSASHYK [M1AP]: the protein stability index (treatment: DMSO) came out at 3.27 ± 0.25 and the protein stability index (treatment: MLN4924 1 uM, 8 h) amounted to 3.31 ± 0.22.
For MEAGERIDASQLPHRVLETRGHAI [SMIM2], in that order: 4.19 ± 0.44 and 4.02 ± 0.6.
For MEAVLNELVSVEDLLKFEKKFQSE [FIS1], in that order: 3.69 ± 0.25 and 3.65 ± 0.27.
For MELQKGKGAAAAAAASGAAGGGGG [INTS3], in that order: 5.19 ± 0.43 and 5.26 ± 0.36.
For MEMTRPTPPHLTSAMAENILAAAC [NOL4L], the protein stability index amounted to 3.38 ± 0.3 (treatment: DMSO) and 3.18 ± 0.34 (treatment: MLN4924 1 uM, 8 h).
MEQVHRGIKGLVRDSHGKGIPNAI [CPXM2]: the protein stability index runs as follows: (treatment: DMSO) 3.68 ± 0.56; (treatment: MLN4924 1 uM, 8 h) 4.35 ± 0.17.
For METHKELKPLLSPSSETTVTVELP [LYSMD4], in that order: 4.77 ± 0.16 and 5.06 ± 0.083.
For MGRKRLITDSYPVVKRREGPAGHS [POLD4], in that order: 3.33 ± 0.32 and 3.2 ± 0.29.
With MKAAVDLKPTLTIIKTEKVDLELF [ETS1], the protein stability index is, setting by setting: (treatment: DMSO) 2.46 ± 0.35; (treatment: MLN4924 1 uM, 8 h) 2.55 ± 0.32.
For MKQRIAEENIMKSNIDKKFSAHYD [FAM50A], in that order: 3.85 ± 0.2 and 3.97 ± 0.14.
Turning to MLCAASGNPDPEITWFKDFLPVDT [PTPRD], the protein stability index is, setting by setting: (treatment: DMSO) 2.95 ± 0.66; (treatment: MLN4924 1 uM, 8 h) 3.23 ± 0.42.
With MLLGVPRLRQLKVRNDSCVVHEDF [PKD2L1], the protein stability index is, setting by setting: (treatment: DMSO) 2.46 ± 0.33; (treatment: MLN4924 1 uM, 8 h) 2.52 ± 0.32.
For MLVDGIDPNFKMEHQNKRSPLHAA [EHMT1], in that order: 3.41 ± 0.39 and 3.67 ± 0.31.
For MMTLLMKKDTLTEEETQFYISETV [STK38L], in that order: 3.16 ± 0.23 and 3.3 ± 0.31.
For MPVQLTSRREIRKIMGVEEEDDDD [ANKRD40], in that order: 5.62 ± 0.19 and 5.57 ± 0.13.
For the sequence MPYISDKHPRQTLEVINLLRKHRE [KLHL20], the protein stability index turned out to be 2.86 ± 0.51 (treatment: DMSO) and 2.98 ± 0.26 (treatment: MLN4924 1 uM, 8 h).
MSEIRFTNLTWDQVITLDQVLDEV [TENT5D] yielded a protein stability index (treatment: DMSO) of 2.33 ± 0.33 and a protein stability index (treatment: MLN4924 1 uM, 8 h) of 2.31 ± 0.27.
Sequence MSEPAGDVRQNPCGSKACRRLFGP [CDKN1A] had a protein stability index (treatment: DMSO) of 3.58 ± 0.39 and a protein stability index (treatment: MLN4924 1 uM, 8 h) of 3.61 ± 0.14.
For MSSASGLRRGHPAGGEENMTETDA [CASP6], in that order: 5.3 ± 0.33 and 5.39 ± 0.16.
On to MSSYTVAGRNVLRWDLSPEQIKTR [NLN], for which the protein stability index is 2.99 ± 0.33 (treatment: DMSO) and 3.04 ± 0.18 (treatment: MLN4924 1 uM, 8 h).
For MWYPEIKHFCPRTPVILVGCQLDL [RHOBTB1], in that order: 2.91 ± 0.57 and 2.6 ± 0.65.
